Common to all, as to format: in vivo, mouse
The subject of one assay is mSCD1. Briefly: quantitative RT-PCR of mSCD1 mRNA in hearts of leptin-treated ob/ob mice. To be noted: heart of leptin-treated ob/ob mice, 12 days. The procedure: (§1) A, SCD activity: Microsomes were prepared from hearts of PBS-treated, ob/ob, ob/ob pair-fed (PF), and leptin-treated (ob/ob-Leptin) mice, and SCD enzyme activity was determined by measuring the incorporation of radioactivity in oleoyl-CoA using [1-^14C]stearoyl-CoA as a substrate. The reaction products were separated by TLC, and the radioactivity was quantitated. Each value represents the mean±S.E. (n=4). B, Levels of monounsaturated fatty acids in the hearts of ob/ob mice: Total fatty acids were extracted from heart of ob/ob mice treated with either leptin or PBS and wild type controls quantitated by GLC as described in the example below. *, p<0.05 versus wt-PBS; #,p<0.05 versus ob/ob-PBS. C, Total RNA was prepared from hearts of PBS or leptin-treated ob/ob mice and used to measure SCD1, SCD2, and SCD4 mRNA levels by quantitative RT-PCR analysis. The fold change relative to that of wild type was calculated after correction for the levels of cyclophilin used as a standard. Each value represents the mean±S.E. (n=4).
(§2) Subcutaneous Leptin Treatment—ob/ob mice were individually caged and allowed to acclimate for a number of days prior to the start of the experiment. […] Body mass and food intake were measured daily. […]

For a further assay, the system named is mSCD4. Briefly: quantitative RT-PCR of mSCD4 mRNA in hearts of leptin-treated ob/ob mice. As to conditions: heart of leptin-treated ob/ob mice, 12 days. The procedure: as §1, §2
Another assay deals with ob/ob mice. Nature of the assay: monounsaturated fatty acid content of hearts of leptin-treated ob/ob mice by GLC. To be noted: leptin treatment, GLC of total fatty acids. On the procedure: as §1, with “standard. […]” for “standard. Each value represents the mean±S.E. (n=4).”
as §2
ob/ob mice have a mutation in the leptin gene and are a model of obesity, insulin resistance, and diabetes. […] To determine which SCD isoform(s) accounted for these effects, we measured RNA levels of mSCD1, mSCD2, and mSCD4. […]

Data on one molecule can be found in US7285395B2, “Stearoyl-CoA desaturase 4 gene” (Wisconsin Alumni Research Foundation, priority 2004, dated 2007).

B1: leptin: recombinant mouse leptin (Amgen, Thousand Oaks, Calif.) (protein, UniProt P41160 22-167, looked up)
Leptin: VPIQKVQDDTKTLIKTIVTRINDISHTQSVSAKQRVTGLDFIPGLHPILSLSKMDQTLAVYQQVLTSLPSQNVLQIANDLENLRDLLHLLAFSKSCSLPQTSGLQKPESLDGVLEASLYSTEVVALSRLQGSLQDILQQLDVSPEC
Take B1: in the assay on mSCD1, the “expression of mSCD1 isoform” value is listed as “unchanged”. Moreover, the “decrease of SCD4 mRNA levels” value in the assay with mSCD4 is reported as “greater than 75%”. Further, the “18:1 content of heart” value in the assay on ob/ob mice is on record as “reduced to levels comparable with those in wild type mice”.
